The source of these data is US20100286021A1, “Methods of Modulating Prokineticin 2 for Treatment of Stress Response and Anxiety-Related Disorders” (priority 2007, published 2010).

For one assay, the system named is PK2 mRNA in the PVN. Particulars: compared with induction by 24 hours of food deprivation. The procedure: In situ hybridization was performed for detection. Animals were killed and brains were quickly dissected and stored at −80° C. until use. In situ hybridization was performed on coronal sections as described previously. The ^35S-hybridized slices were then coated with Kodak NTB2 autoradiographic emulsion and exposed for 1 month at 4° C.

Assay [1] can be described thus: Hot-plate pain test, morphine-induced analgesia. Format: in vivo. Particulars: subcutaneous injection, various concentrations, 55° C. hot plate, WT vs PK2^-/- mice. The source says:
FIGS. 6A-6C show impaired stress-induced analgesia in PK2^-/- mice. […] (a and b) The hot-plate latency was monitored before or after stress. Animals were stressed by 3-min of cold-water swimming (a) or 5-min of tail suspension (b). Wild-type (closed circles); PK2^-/- (open circles). The black blocks indicate the stressing period. (c) The hot-plate latency was also monitored after subcutaneous injection of various concentrations of morphine. There was no genotypic difference in morphine-induced analgesia; n=12-15 mice/genotype *, P<0.05; unpaired t test. Error bars, SEM.
Pain perception and stress-induced analgesia was measured. All the pain tests were carried out on a hot plate with a 55° C. surface, on which no basal difference was observed between WT and PK2^-/- mice. The cut-off time was set to 1 min to prevent tissue damage. Stress was induced by forced swimming for 3 min in 10° C. water, or suspending the tail for 5 minutes.

Assay [2] in a line: Forced swimming test (depression-like behavior) after ICV infusion. It is filed as in vivo. Particulars: mice, 4 μg ICV, 1 hour after infusion, vs CSF. Here is the method:
(§1) (a) Artificial cerebrospinal fluid (CSF) or 5 μg of PK2 was infused ICV to rats at ZT 14. Slow wave sleep (SWS), rapid eye movement sleep (REM) and active wake (AW) during the following 4 hours (ZT 14-18) were averaged and presented as mean±SEM; n=6 rats/group. (b) CSF or 5 μg of PK2 was infused ICV to rats at ZT 2 (day) or ZT 14 (night), the food intake in the following 24 hours were measured periodically and presented as mean±SEM. n=6-10 rats/group. (c) CSF or 4 μg of PK2 was infused ICV into mice. Anxiety-like behavior was monitored with a light-dark box assay 1 hour after infusion. n=12 mice/group. (d) CSF or 4 μg of PK2 was infused ICV into mice. Immobility in a forced swimming test was measured 1 hour after infusion; n=12 mice/group. *, P<0.05; unpaired t test. Error bars, SEM.
The Porsolt forced swim test was utilized. Animals were placed individually in cylinders (height 25 cm, diameter 11 cm) filled with 8-cm-deep water (temperature 22±1° C.) for 6 minutes The total period of immobility during the 6 minutes was recorded. Immobility was defined as no volitional body or limb movement.
(§2) Intracerebroventricular infusion was utilized. Rats with cannula fit to the lateral ventricle were purchased from Charles River laboratory. […]

Assay [3] can be described thus: Light-dark box assay (anxiety-like behavior) after ICV infusion. It is filed as in vivo. Particulars: mice, 4 μg ICV, 1 hour after infusion, vs CSF. The procedure:
as §1
The light-dark box was divided into a lit compartment (30×20×25 cm, illumination 400 lux) and a dark compartment (15×20×25 cm) connected by a 4-cm tunnel. The experiment was started by placing the animal in the dark compartment.
Numbers of transitions, total time spent in the lit compartment, and latency until the first exit were recorded on video and quantified during 10 minutes.
as §2

Assay [4] is described as follows: Food intake after ICV infusion. Particulars: rats, 5 μg ICV at ZT 2 (day) or ZT 14 (night), following 24 hours, vs CSF. Format: in vivo. Here is the method: as §1
Food intake was measured. Mice food intake measurement was performed using a Comprehensive Lab Animal Monitoring System (CLAMS, Columbus Instruments, Columbus, Ohio). Feeding data were collected every 10 min for each mouse over a period of 5 days. The daily food intake was the total food consumed during 24 hours. For rats, the food pellets in the food bin were measured manually every 4-8 hours after drug infusion. The food intake was the total amount of food loaded subtracted by the amount of food left.
Intracerebroventricular infusion was utilized. […]

A short description of assay [5]: Sleep/wake recording after ICV infusion. It is filed as in vivo. The settings on record: rats, 5 μg ICV at ZT 14, following 4 hours (ZT 14-18), vs CSF. Here is the method:
as §1
Recording and analysis of sleep/wake was performed. The sleep/wake recording in rats was carried out as described in reference. Digital recording was visually scored as slow wave sleep (SWS), rapid eye movement sleep (REM) and active wake (AW). For the mice, electroencephalogram (EEG) and electromyogram (EMG) signals were recorded using a lightweight implant and cabling procedure as described. […] The signals were digitally filtered (EEG, 0.3-30 Hz; EMG, 2-100 Hz) and semi-automatically scored in 4 second epochs as wake, NREM, or REM sleep using SleepSign sleep scoring software (Kissei Comtec America, California). […]

In the case of `O=CC[C@@H](O)[C@H](O)[C@H](O)CO` [2-DG, 2-Dexoyl-D-glucose], the “induction of PK2 mRNA in the PVN” value in the assay on PK2 mRNA in the PVN is on record as “induction was mimicked”.
As to `CN1CC[C@]23c4c5ccc(O)c4O[C@H]2[C@@H](O)C=C[C@H]3[C@H]1C5` [morphine], the “morphine-induced analgesia (hot-plate latency)” value in assay [1] is “indistinguishable between WT and PK2^-/- mice”.

B1: PK2: regulatory peptide that activates two closely related G protein-coupled receptors (PKR1, PKR2) (protein, UniProt Q9HC23 28-129, looked up)
Prokineticin-2: AVITGACDKDSQCGGGMCCAVSIWVKSIRICTPMGKLGDSCHPLTRKNNFGNGRQERRKRKRSKRKKEVPFFGRRMHHTCPCLPGLACLRTSFNRFICLAQK
For B1, in assay [2], the “time spent on immobility” value was “significantly increased the time spent on immobility”. In addition, in assay [3], the “general activity (total entries)” value was “without significant effect on general activity” and the “time spent in the lit compartment” value is “significantly less time spent in the lit compartment”. The food intake entry in assay [4] was “circadian phase-independent suppression of food intake”. Also, the arousal level entry in assay [5] is on record as “significantly increased arousal level”.
